The values that follow come from paper PMC7846742.

Test [1] has as its target AviTag-His6-OAZ-GSY-SPM-Ctag (wt, with C175A) (human | Neisseria meningitidis serogroup B (strain MC58)) (UniProt Q9JYV5). Briefly: SPR; Biacore T200; biotinylated AviTag-OAZ-GSY-SPM variants immobilised with the Biotin CAPture Kit, ODC flowed over; HBS with 2 mM TCEP and 0.02 mM PLP; 25 °C; 1:1 binding model.
Test [2] concerns the target His6-OAZ-GSY-SPM-Ctag (human | Neisseria meningitidis serogroup B (strain MC58)) (UniProt Q9JYV5). The experiment in a line: cross-linking; NeissLock: Ca2+-induced aspartic anhydride on OAZ reacts with the docked partner; purified proteins mixed at 10 µM each or as indicated (AZI 2.5 µM each; Fig. 4b 0.5 µM each; 30 µM ODC with 10 µM OAZ-Y-SPM), 37 °C, HBS pH 7.4 with 2 mM TCEP, 10 mM CaCl2 unless varied (pH 6.5-8.5, 0.5-10 mM Ca2+, TBS, lyophilised probe); SDS-PAGE with Coomassie, intact ESI-MS, tryptic LC-MS/MS.

B1: His6-ODC-Ctag (human Ornithine Decarboxylase) (enzyme)
chain: NNFGNEEFDCHFLDEGFTAKDILDQKINEVSSSDDKDAFYVADLGDILKKHLRWLKALPRVTPFYAVKCNDSKAIVKTLAATGTGFDCASKTEIQLVQSLGVPPERIIYANPCKQVSQIKYAANNGVQMMTFDSEVELMKVARAHPKAKLVLRIATDDSKAVCRLSVKFGATLRTSRLLLERAKELNIDVVGVSFHVGSGCTDPETFVQAISDARCVFDMGAEVGFSMYLLDIGGGFPGSEDVKLKFEEITGVINPALDKYFPSDSGVRIIAEPGRYYVASAFTLAVNIIAKKIVLKEQTGSDDEDESSEQTFMYYVNDGVYGSFNCILYDHAHVKPLLQKRPKPDEKYYSSSIWGPTCDGLDRIVERCDLPEMHVGDWMLFENMGAYTVAAASTFNGFQRPTIYYVMSGPAWQLMQQFQ
In the case of B1, in test [1], the equilibrium dissociation constant (Kd) came out at 120 nM. Moreover, in test [2], the coupling yield after 2 h, lyophilized OAZ-GSY-SPM was 51%; the coupling yield after 2 h, untreated control is 48%; the coupling yield at 0.5 mM Ca2+ compared to 10 mM Ca2+ after 2 h amounted to 78%; the coupling yield in TBS compared to HBS after 2 h was found to be 95%. In test [2], the half-time of the conjugation reaction at pH 7.0 was below 2 min.

B2: ODC ΔN ΔC 4KR with K92 re-introduced (enzyme)
chain: DCHFLDEGFTAKDILDQKINEVSSSDDKDAFYVADLGDILKKHLRWLKALPRVTPFYAVKCNDSRAIVRTLAATGTGFDCASKTEIQLVQSLGVPPERIIYANPCKQVSQIRYAANNGVQMMTFDSEVELMKVARAHPKAKLVLRIATDDSKAVCRLSVKFGATLRTSRLLLERAKELNIDVVGVSFHVGSGCTDPETFVQAISDARCVFDMGAEVGFSMYLLDIGGGFPGSEDVKLKFEEITGVINPALDKYFPSDSGVRIIAEPGRYYVASAFTLAVNIIAKKIVLKEQTGSDDEDESSEQTFMYYVNDGVYGSFNCILYDHAHVKPLLQKRPKPDEKYYSSSIWGPTCDGLDRIVERCDLPEMHVGDWMLFENMGAYTVAAASTFNGFQRPTIYYVMSGPAWQLMQQFQ
As for B2, the conjugation compared to wild-type ODC in test [2] was 89%.

By Kd is commonly meant the concentration at which binding is half-saturated. Low values mean tighter binding, high ones weaker binding.
